Results on two molecules are retold here after patent US20090232794A1 (published 2009).

For experiment [1], the target named is T1, purified human C1q protein (human, UniProt P02745 23-245; P02746 28-253; P02747 29-245). Put plainly: purified human C1q on transfected COS7 cells, anti-C1q-FITC immunofluorescence. The protocol: COS7 cells were transfected with cDNA's encoding full-length NgR or PirB. […] Cells were washed four times with Hank's Buffered Saline Solution (HBSS), fixed for five minutes with 2% paraformaldehyde, washed four times with HBSS, and blocked for 15 minutes with 10% heat-inactivated goat serum (RIGS) in HBSS. […] Immunofluorescence was detected using a Zeiss Axioskop fluorescence microscope.
T1 sequence (P02745 23-245, chain 1 of 3): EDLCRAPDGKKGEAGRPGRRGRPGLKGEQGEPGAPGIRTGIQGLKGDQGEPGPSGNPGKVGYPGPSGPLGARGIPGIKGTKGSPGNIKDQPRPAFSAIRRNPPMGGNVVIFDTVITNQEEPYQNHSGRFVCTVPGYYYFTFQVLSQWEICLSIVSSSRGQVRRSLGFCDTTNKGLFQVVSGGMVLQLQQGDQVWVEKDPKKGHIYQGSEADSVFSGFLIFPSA
T1 sequence (P02746 28-253, chain 2 of 3): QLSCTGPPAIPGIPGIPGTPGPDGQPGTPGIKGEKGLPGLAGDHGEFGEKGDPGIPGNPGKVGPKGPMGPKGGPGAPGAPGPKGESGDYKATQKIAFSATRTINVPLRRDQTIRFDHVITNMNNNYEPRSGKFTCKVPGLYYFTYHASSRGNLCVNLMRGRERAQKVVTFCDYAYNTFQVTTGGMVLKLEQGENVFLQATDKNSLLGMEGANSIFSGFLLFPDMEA
T1 sequence (P02747 29-245, chain 3 of 3): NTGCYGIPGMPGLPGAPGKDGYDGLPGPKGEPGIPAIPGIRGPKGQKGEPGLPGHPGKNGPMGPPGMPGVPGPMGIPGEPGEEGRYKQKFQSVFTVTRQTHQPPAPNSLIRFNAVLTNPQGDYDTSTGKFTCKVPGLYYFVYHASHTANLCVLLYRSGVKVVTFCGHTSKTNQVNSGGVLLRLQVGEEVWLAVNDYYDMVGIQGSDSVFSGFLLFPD

Experiment [2] concerns the target T1, purified human C1q protein. Description: purified human C1q on transfected cells, anti-C1q-FITC immunofluorescence.

B1: PirB (paired-immunoglobulin-like receptor B), full-length, expressed on transfected COS7 cells (receptor)
chain: SLPKPILRVQPDSVVSRWTKVTFFCEETIGANEYRLYKDGKLYKTVTKNKQKPANKAEFSLSNVDLRNAGQYRCSYSTQYKSSGYSDPLELVVTGDYWTPSLLAQASPVVTSGGYVTLQCESWHNDHKFILTVEGPQKLSWTQDSQYNYSTRKYHALFSVGPVTPNQRWICRCYSYDRNRPYVWSPPSESVELLVSGNLQKPTIKAEPGPVIASKRAMTIWCQGNLDAEVYFLHNEGSQKTQSTQTLQQPGNKGKFFIPSMTRQHAGQYRCYCYGSAGWSQPSDTLELVVTGIYEHYKPRLSVLPSPVVTAGGNMTLHCASDFHYDKFILTKEDKKFGNSLDTEHISSSRQYRALFIIGPTTPTHTGTFRCYGYFKNAPQLWSVPSDLQQILISGLSKKPSLLTHQGHILDPGMTLTLQCYSDINYDRFALHKVGGADIMQHSSQQTDTGFSVANFTLGYVSSSTGGQYRCYGAHNLSSEWSASSEPLDILITGQLPLTPSLSVKPNHTVHSGETVSLLCWSMDSVDTFILSKEGSAQQPLRLKSKSHDQQSQAEFSMSAVTSHLSGTYRCYGAQNSSFYLLSSASAPVELTVSGPIETSTPPPTMSMPLGGLHMYLKALIGVSVAFILFLFILIFILLRRRHRGKFRKDVQKEKDLQLSSGAEEPITRKGELQKRPNPAAATQEESLYASVEDMQTEDGVELNSWTPPEEDPQGETYAQVKPSRLRKAGHVSPSVMSREQLNTEYEQAEEGQGANNQAAESGESQDVTYAQLCSRTLRQGAAASPLSQAGEAPEEPSVYATLAAARPEAVPKDVEQ
notes: COS7 cells were transfected with cDNA encoding full-length PirB; In the antibody outgrowth assays the target is the PirB of mouse neurons
As to B1, the binding result in experiment [1] was “binds”.

B2: LILRB2, expressed on transfected COS7 cells (receptor)
chain: QTGTIPKPTLWAEPDSVITQGSPVTLSCQGSLEAQEYRLYREKKSASWITRIRPELVKNGQFHIPSITWEHTGRYGCQYYSRARWSELSDPLVLVMTGAYPKPTLSAQPSPVVTSGGRVTLQCESQVAFGGFILCKEGEDEHPQCLNSQPHARGSSRAIFSVGPVSPNRRWSHRCYGYDLNSPYVWSSPSDLLELLVPGVSKKPSLSVQPGPVVAPGESLTLQCVSDVGYDRFVLYKEGERDLRQLPGRQPQAGLSQANFTLGPVSRSYGGQYRCYGAYNLSSEWSAPSDPLDILITGQIHGTPFISVQPGPTVASGENVTLLCQSWRQFHTFLLTKAGAADAPLRLRSIHEYPKYQAEFPMSPVTSAHAGTYRCYGSLNSDPYLLSHPSEPLELVVSGPSMGSSPPPTGPISTPAGPEDQPLTPTGSDPQSGLGRHLGVVIGILVAVVLLLLLLLLLFLILRHRRQGKHWTSTQRKADFQHPAGAVGPEPTDRGLQWRSSPAADAQEENLYAAVKDTQPEDGVEMDTRAAASEAPQDVTYAQLHSLTLRRKATEPPPSQEREPPAEPSIYATLAIH
notes: also called ILT4; LIR2
B2: the binding result in experiment [2] was “binds”.
